Test results: patent US8216581 (University of Pennsylvania, dated 2012)

How the values were obtained:
[1] = molecular target: T1, GPIIb/IIIa on intact human platelets (human, UniProt P08514 32-1039; P05106 27-788); assay: flow cytometry on intact platelets
T1 construct: whole, on cells; also called platelet GPIIb/IIIa; αIIbβ3

immobilized GPIa/IIa = molecular target: T2, immobilized GPIa/IIa (UniProt P17301 30-1181; P05556 21-798); assay: ELISA (PakAuto kit), soluble Fab
T2 construct: Antigen of the PakAuto ELISA kit
Procedure: Antibodies to platelet GPIIb/IIIa, GPIb/IX, or GPIa/IIa were measured by using a PakAuto kit (GTI, Brookfield, Wis.); those to cardiolipin were assessed with a QuantaLite kit (Inova, San Diego, Calif.).

[2] = molecular target: T3, vitronectin receptor (αvβ3) on CHO cells (UniProt P06756 31-1048; P05106 27-788, limits assumed); assay: flow cytometry on transfected CHO cells
T3 construct: whole, on cells
T3 sequence (P06756 31-1048 limits assumed, chain 1 of 2): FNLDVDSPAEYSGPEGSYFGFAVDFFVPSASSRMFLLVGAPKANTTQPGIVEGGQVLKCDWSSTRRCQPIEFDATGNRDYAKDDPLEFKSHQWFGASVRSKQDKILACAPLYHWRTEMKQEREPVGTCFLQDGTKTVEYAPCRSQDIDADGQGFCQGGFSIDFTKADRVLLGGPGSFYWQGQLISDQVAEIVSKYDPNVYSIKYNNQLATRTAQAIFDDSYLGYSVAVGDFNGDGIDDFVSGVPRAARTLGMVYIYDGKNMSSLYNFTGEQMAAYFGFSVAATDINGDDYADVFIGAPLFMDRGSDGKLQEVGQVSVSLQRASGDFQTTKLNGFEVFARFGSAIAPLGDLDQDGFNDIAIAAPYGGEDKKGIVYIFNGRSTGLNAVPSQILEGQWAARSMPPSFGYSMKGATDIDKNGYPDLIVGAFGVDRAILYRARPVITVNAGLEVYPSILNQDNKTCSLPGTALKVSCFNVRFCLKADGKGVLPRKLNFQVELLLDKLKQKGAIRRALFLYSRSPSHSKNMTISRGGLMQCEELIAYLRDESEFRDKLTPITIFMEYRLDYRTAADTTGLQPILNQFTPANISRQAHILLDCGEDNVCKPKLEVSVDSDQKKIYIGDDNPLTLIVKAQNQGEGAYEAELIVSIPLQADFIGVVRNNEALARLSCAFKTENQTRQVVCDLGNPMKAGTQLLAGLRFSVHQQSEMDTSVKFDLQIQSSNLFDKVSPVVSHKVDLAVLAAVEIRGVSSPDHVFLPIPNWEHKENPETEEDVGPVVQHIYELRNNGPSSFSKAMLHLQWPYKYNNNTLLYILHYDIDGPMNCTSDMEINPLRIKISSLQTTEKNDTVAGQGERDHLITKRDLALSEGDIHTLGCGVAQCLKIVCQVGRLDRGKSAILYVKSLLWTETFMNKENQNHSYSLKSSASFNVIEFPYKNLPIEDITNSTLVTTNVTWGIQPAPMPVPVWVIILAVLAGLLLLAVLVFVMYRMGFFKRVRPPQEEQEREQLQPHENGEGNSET
T3 sequence (P05106 27-788 limits assumed, chain 2 of 2): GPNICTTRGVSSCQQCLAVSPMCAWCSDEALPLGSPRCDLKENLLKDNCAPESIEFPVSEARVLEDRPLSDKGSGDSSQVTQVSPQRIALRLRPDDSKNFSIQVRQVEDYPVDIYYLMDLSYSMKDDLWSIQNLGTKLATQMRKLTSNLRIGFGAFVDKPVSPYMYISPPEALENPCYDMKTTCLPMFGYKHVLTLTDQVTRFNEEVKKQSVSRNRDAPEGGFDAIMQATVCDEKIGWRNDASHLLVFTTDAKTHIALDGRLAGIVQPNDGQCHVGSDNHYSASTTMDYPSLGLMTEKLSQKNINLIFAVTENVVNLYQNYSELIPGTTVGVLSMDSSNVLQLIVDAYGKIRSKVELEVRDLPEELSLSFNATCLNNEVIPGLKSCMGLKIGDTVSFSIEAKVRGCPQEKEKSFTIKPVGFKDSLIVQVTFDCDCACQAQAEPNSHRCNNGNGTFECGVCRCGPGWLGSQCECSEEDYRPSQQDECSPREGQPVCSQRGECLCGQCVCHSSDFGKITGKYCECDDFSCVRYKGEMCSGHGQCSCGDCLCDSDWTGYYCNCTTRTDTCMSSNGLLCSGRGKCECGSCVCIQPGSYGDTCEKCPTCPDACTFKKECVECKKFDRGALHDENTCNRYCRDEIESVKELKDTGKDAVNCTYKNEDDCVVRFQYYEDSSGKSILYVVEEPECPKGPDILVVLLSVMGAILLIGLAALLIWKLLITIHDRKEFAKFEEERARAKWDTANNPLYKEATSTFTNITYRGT

Binder	binding result [1]	binding result (immobilized GPIa/IIa)	binding result [2]
H44L126 (Fab, V domains shown, Soluble Fab) VH: QVQLVESGGGVVQPGRSLRLSCAASGFTFSYYAMVWVRQAPGKGLEWVAVISNDGRNKYYADSVKGRFTISRDNAKNTLYLQMNSLRVEDTAVYYCARLGYWGPGTLVTVSS VL: DIQMTQSPSSLSASVGDRVIVTCRASQSISSYVSWYQQKPGKAPKLLISTTSTLQSGVPSRFSGSASGTDFTLTISSLQPEDFATYYCQQSSSRPLTFGQGTKVEIK	no binding		
H44L127 (Fab, V domains shown, Soluble Fab) VH: QVQLVESGGGVVQPGRSLRLSCAASGFTFSYYAMVWVRQAPGKGLEWVAVISNDGRNKYYADSVKGRFTISRDNAKNTLYLQMNSLRVEDTAVYYCARLGYWGPGTLVTVSS VL: DIQMTQSPSSLSASVGDRVTITCRASQTITSFLNWYQQKRGKAPKLLIYGASTLQSGVPSRFSGSGSGTDFTLTISSLQPEDVATYYCQQTYSQPLTFGQGTKVEIK	no binding		

Continued, values first:

binding result [1]	binding result (immobilized GPIa/IIa)	binding result [2]	Binder
	no binding	no binding	H44L4 (Fab, V domains shown, their results are put here; also called anti-GPIIb/IIIa platelet autoantibody; ITP patient A antibody H44L4) VH: QVQLVESGGGVVQPGRSLRLSCAASGFTFSYYAMVWVRQAPGKGLEWVAVISNDGRNKYYADSVKGRFTISRDNAKNTLYLQMNSLRVEDTAVYYCARLGYWGPGTLVTVSS VL: DIQMTQSPSSLSVSVGDRVTITCRASQTITMYLNWYQQKPGKAPKLLIYAGSSLPSGVPPRFSGSGSGTDFTLTISSLQPEDFATYYCQQSYSTLTFGGGTKVEMK
no binding			H44L128 (Fab, V domains shown, Soluble Fab) VH: QVQLVESGGGVVQPGRSLRLSCAASGFTFSYYAMVWVRQAPGKGLEWVAVISNDGRNKYYADSVKGRFTISRDNAKNTLYLQMNSLRVEDTAVYYCARLGYWGPGTLVTVSS VL: DIQMTQSPSSLSAFVGDRVTITCRASQSITSYLNWYQQKPGKAPNLLIYAASSLQSGVPSRFSGSGSGTEFTLTISSLQPEDYATYYCQQRYSYILTFGQGTKVEIK
